Experimental data taken from patent publication US20130225493A1 (HEPACORE, published 2013).

B1: FGF-18^Δ31 (ligand)
chain: MDFRIHVENQTRARDDVSRKQLRLYQLYSRTSGKHIQVLGRRISARGEDGDKYAQLLVETDTFGSQVRIKGKETEFYLCMNRKGKLVGKPDGTSKECVFIEKVLENNYTALMSAKYSGWYVGFTKKGRPRKGPKTRENQQDVHFMKRYPKGQPELQKPFKYTTVTKRSRRIRPTHPA
modifications: biotinylation not stated for the functional ELISA of Table 4
notes: E. coli expressed
B2: FGF-18 (recombinant wild type, mature form without the signal peptide) (ligand)
chain: MENVDFRIHVENQTRARDDVSRKQLRLYQLYSRTSGKHIQVLGRRISARGEDGDKYAQLLVETDTFGSQVRIKGKETEFYLCMNRKGKLVGKPDGTSKECVFIEKVLENNYTALMSAKYSGWYVGFTKKGRPRKGPKTRENQQDVHFMKRYPKGQPELQKPFKYTTVTKRSRRIRPTHPA
modifications: biotinylated in the immobilized receptor assays (sites not given)
notes: Expressed in E. coli from pET9a and purified on heparin Sepharose; also called FGF-18 wild type; F18 w.t
B3: FGF-18^Δ33 (ligand)
chain: MRIHVENQTRARDDVSRKQLRLYQLYSRTSGKHIQVLGRRISARGEDGDKYAQLLVETDTFGSQVRIKGKETEFYLCMNRKGKLVGKPDGTSKECVFIEKVLENNYTALMSAKYSGWYVGFTKKGRPRKGPKTRENQQDVHFMKRYPKGQPELQKPFKYTTVTKRSRRIRPTHPA
modifications: biotinylation not stated for the functional ELISA of Table 4
notes: E. coli expressed; Numbering includes the signal peptide (1-27)
B4: FGF-18^Δ37 (ligand)
chain: MENQTRARDDVSRKQLRLYQLYSRTSGKHIQVLGRRISARGEDGDKYAQLLVETDTFGSQVRIKGKETEFYLCMNRKGKLVGKPDGTSKECVFIEKVLENNYTALMSAKYSGWYVGFTKKGRPRKGPKTRENQQDVHFMKRYPKGQPELQKPFKYTTVTKRSRRIRPTHPA
modifications: biotinylated in the immobilized receptor assays (sites not given)
notes: E. coli expressed; Numbering includes the signal peptide (1-27); also called v1
B5: FGF-18^Δ51 (ligand)
chain: MLRLYQLYSRTSGKHIQVLGRRISARGEDGDKYAQLLVETDTFGSQVRIKGKETEFYLCMNRKGKLVGKPDGTSKECVFIEKVLENNYTALMSAKYSGWYVGFTKKGRPRKGPKTRENQQDVHFMKRYPKGQPELQKPFKYTTVTKRSRRIRPTHPA
modifications: biotinylated in the immobilized receptor assays (sites not given)
notes: E. coli expressed; Numbering includes the signal peptide (1-27); also called v3
B6: FGF-18^Δ45 (ligand)
chain: MDVSRKQLRLYQLYSRTSGKHIQVLGRRISARGEDGDKYAQLLVETDTFGSQVRIKGKETEFYLCMNRKGKLVGKPDGTSKECVFIEKVLENNYTALMSAKYSGWYVGFTKKGRPRKGPKTRENQQDVHFMKRYPKGQPELQKPFKYTTVTKRSRRIRPTHPA
modifications: biotinylated in the immobilized receptor assays (sites not given)
notes: E. coli expressed; Numbering includes the signal peptide (1-27); also called v2

What follows are binders tested against T1, FGFR4 extracellular domain, immobilized (R4-Fc) (UniProt P22455 22-369) (assay: functional ELISA on immobilized FGFR).
T1 construct: extracellular domain; also called FDCPR4-Fc
T1 sequence (looked up): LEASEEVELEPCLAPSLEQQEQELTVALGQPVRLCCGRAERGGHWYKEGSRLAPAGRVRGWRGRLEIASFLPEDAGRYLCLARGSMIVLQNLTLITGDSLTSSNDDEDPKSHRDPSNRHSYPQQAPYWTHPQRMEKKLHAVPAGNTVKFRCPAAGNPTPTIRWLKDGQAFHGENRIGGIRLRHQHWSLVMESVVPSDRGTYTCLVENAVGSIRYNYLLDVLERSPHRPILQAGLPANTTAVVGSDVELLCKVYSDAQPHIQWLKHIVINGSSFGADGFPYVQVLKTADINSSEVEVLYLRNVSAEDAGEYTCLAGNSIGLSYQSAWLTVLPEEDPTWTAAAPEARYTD

Binder | EC50
B1 | 9.36 ng/mL
B2 | 10.2 ng/mL
B3 | 7.11 ng/mL
B4 | 8.28 ng/mL
B5 | 10.6 ng/mL

The binders below were run against T1, FGFR4 extracellular domain, immobilized … (assay: ELISA: biotinylated ligand on immobilized FGFR-Fc, HRP-streptavidin).
Description: FIGS. 2A-2D. […] (2A) FGFR1; (2B) FGFR2; (2C) FGFR3 and (2D) FGFR4. Biotinylated FGF-18 (♦) and three FGF-18 variants (Δ37, v1,; Δ45, v2, (▪); and Δ51, v3, (▪)) were added at increasing concentrations to FGFR1-4 anchored to a MaxiSorp ELISA plate. Bound ligands were detected by HRP-streptavidin. Data are the average of duplicate wells.
FGF-18 and the N-terminal truncated variants (FGF-18^Δ37, FGF-18^Δ45 and FGF-18^Δ51) were tested for receptor specificity by binding to immobilized extracellular domain of FGFR1-4 (FIG. 2). Biotinylated FGF's were added at increasing concentrations to FGFR1-4 anchored to a MaxiSorp ELISA plate. Bound ligands were detected by HRP-streptavidin. […] The variants of the present invention are thus shown to be specific for FGFR3-4.

Binder | EC50
B6 | 8.1 ng/mL
B2 | 9.23 ng/mL
B4 | 5.86 ng/mL
B5 | 9.93 ng/mL
